This is an account of results in US20090142345A1.

The target in assay [1] is DDR1bDN protein (dominant negative type DDR1b not having kinase activity) (human) (UniProt Q08345). Briefly: cell-based or functional assay.
The target in assay [2] is human DDR1b protein (Discoidin Domain Receptor 1, isoform b) (human) (UniProt Q08345). Briefly: cell-based or functional assay.

Turning to “type IV collagen (Sigma Company) (ligand)”, the suppression of serum-removal-induced apoptosis by addition of type IV collagen in DDR1bDN-#206 cells (Cell Death Detection ELISA) in assay [1] was 34%. For the same substance, the suppression of serum-removal-induced apoptosis by addition of type IV collagen in DDR1FL-#117 cells (Cell Death Detection ELISA) in assay [2] stood at 53%.

In the case of “non-immunized rabbit IgG (Jackson Immunoresearch Company) (antibody)”, in assay [2], the cell protection inhibitory activity at 33 µg/mL, relative to the change induced by type IV collagen as 100%, HCT116 cells (Caspase-Glo 3/7 Assay) was 0% and the cell protection inhibitory activity at 1 mg/mL, relative to the absorbance change induced by type IV collagen as 100%, DDR1FL-#117 cells was determined as 1.7%.
